The values below come from patent publication US20250034536, “POLYNUCLEOTIDES ENCODING ENGINEERED MEGANUCLEASES HAVING SPECIFICITY FOR RECOGNITION SEQUENCES IN THE DYSTROPHIN GENE” (Precision BioSciences, Inc., published 2025).

Where a chain is given by its changes, count along the chain named.

Holding throughout (test): cell_activity; MRC5 cells, 2 ng mRNA; also active in CHO GFP reporter
Common to all, as to settings: tags: N-terminal SV40 NLS

The target in one data set is T1, DMD 35-36x.81 (synthetic construct).
T1 chain: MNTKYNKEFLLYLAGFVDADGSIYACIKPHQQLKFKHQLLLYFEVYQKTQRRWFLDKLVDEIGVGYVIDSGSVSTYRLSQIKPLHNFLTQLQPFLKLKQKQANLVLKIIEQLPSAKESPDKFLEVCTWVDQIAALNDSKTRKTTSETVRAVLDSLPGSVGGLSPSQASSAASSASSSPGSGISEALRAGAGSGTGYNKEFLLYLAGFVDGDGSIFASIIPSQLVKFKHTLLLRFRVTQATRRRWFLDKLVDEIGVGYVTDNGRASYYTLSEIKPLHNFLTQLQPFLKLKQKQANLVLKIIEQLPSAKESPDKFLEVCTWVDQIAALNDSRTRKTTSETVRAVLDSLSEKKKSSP
Here is the method: (§1) In these experiments, 1e6 MRC5 cells were electroporated with 2 ng or 100 ng mRNA encoding DMD meganucleases (DMD 19-20x.13, DMD 19-20x.87, DMD 29-30x.18, DMD 29-30x.40, DMD 35-36x.63, DMD 35-36x.81, DMD 37-38x.15, DMD 37-38x.66, or DMD 37-38x.79), or GFP using the Lonza Amaxa 4D system. Cells were collected at two days post electroporation for gDNA preparation and evaluated for transfection efficiency using a Beckman Coulter CytoFlex S cytometer. Transfection efficiency exceeded 90%. Additional time points were collected at five- and eight-days post electroporation for gDNA extractions. gDNA was prepared using the Macherey Nagel NucleoSpin Blood QuickPure kit.

Another data set concerns the target T2, DMD 35-36x.63 (synthetic construct).
T2 chain: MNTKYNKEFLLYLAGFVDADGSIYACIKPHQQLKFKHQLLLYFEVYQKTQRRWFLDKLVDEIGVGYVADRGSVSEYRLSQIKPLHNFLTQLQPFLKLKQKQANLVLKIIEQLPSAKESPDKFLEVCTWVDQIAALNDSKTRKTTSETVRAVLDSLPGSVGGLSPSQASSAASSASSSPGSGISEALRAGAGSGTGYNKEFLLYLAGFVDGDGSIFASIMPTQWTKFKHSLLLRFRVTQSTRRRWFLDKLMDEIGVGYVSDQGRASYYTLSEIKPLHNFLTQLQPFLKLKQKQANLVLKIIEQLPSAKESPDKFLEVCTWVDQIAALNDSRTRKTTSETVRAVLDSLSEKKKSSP
The method, then: as §1

Another data set concerns the target T3, DMD 37-38x.66 (synthetic construct).
T3 chain: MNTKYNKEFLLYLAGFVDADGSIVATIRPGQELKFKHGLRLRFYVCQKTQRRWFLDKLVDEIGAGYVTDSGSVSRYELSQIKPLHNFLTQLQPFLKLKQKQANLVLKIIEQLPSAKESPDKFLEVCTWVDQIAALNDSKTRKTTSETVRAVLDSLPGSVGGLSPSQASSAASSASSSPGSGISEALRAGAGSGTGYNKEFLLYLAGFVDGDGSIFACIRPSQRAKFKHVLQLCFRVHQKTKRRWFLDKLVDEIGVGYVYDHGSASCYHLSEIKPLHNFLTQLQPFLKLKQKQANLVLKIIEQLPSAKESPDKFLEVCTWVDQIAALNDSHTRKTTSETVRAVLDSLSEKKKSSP
The method, then: as §1

A further data set deals with T4, DMD 37-38x.15 (synthetic construct).
T4 chain: T3 chain with A19S, A64V, K239L, H261C, C266F, E271Q, H330K
The method, then:
as §1

The next data set addresses T5, DMD 37-38x.79 (synthetic construct).
T5 chain: T3 chain with A64V, K239S, K241R, V255A, C266L, H268S, E271Q
Here is the method: as §1

B1: DMD 35-36 recognition sequence (dsDNA)
DNA 1: CTACATGGTGTATCTGACTAAG
DNA 2: CTTAGTCAGATACACCATGTAG
B1: the activity with DMD 35-36x.81 and with DMD 35-36x.63 was above 30 % indel throughout.

B2: DMD 37-38 recognition sequence (dsDNA)
DNA 1: CTGGCCGAAGTATAGGAATATG
DNA 2: CATATTCCTATACTTCGGCCAG
For B2, the activity with DMD 37-38x.66, in the data set with DMD 37-38x.15 and with DMD 37-38x.79 was above 30 % indel in each case.
